# Molecular target: Luciferase (UniProt P08659 1-550 = luciferase, limits assumed)
# Assay: pull-down: 1:1 mix, immunoprecipitation with anti-OVA antibody, western blot with anti-luciferase antibody
# Protocol: Lanes with no chaperone (1st lane) were included as controls. […] In the bottom panel, WB was performed with anti-luciferase to confirm that OVA pull-down was successful.
# After SDS-PAGE (10%) electrophoresis, western blot analysis was performed using anti-luciferase (Promega, Madison, Wis.) or anti-gp100 antibody (Santa Cruz Biotechnology, Santa Cruz, Calif.).
# Luciferase, sequence (P08659 whole entry): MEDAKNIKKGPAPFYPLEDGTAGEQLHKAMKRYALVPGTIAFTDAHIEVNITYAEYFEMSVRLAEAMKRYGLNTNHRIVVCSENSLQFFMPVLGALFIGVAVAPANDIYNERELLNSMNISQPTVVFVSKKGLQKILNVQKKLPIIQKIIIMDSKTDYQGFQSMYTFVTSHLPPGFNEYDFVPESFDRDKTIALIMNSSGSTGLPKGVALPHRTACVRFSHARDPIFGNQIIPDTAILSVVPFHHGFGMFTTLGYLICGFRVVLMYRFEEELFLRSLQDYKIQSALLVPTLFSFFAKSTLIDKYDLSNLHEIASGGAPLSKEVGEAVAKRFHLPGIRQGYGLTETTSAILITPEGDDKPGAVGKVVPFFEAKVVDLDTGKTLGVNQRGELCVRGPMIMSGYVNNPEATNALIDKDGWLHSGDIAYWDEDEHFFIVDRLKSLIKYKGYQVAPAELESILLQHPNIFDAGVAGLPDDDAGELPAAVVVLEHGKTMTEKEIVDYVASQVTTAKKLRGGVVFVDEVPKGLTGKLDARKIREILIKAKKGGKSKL
binder,measurement,value
"Ovalbumin (other, UniProt P01012 2-386, looked up, Negative control protein) GSIGAASMEFCFDVFKELKVHHANENIFYCPIAIMSALAMVYLGAKDSTRTQINKVVRFDKLPGFGDSIEAQCGTSVNVHSSLRDILNQITKPNDVYSFSLASRLYAEERYPILPEYLQCVKELYRGGLEPINFQTAADQARELINSWVESQTNGIIRNVLQPSSVDSQTAMVLVNAIVFKGLWEKAFKDEDTQAMPFRVTEQESKPVQMMYQIGLFRVASMASEKMKILELPFASGTMSMLVLLPDEVSGLEQLESIINFEKLTEWTSSNVMEERKIKVYLPRMKMEEKYNLTSVLMAMGITDVFSSSANLSGISSAESLKISQAVHAAHAEINEAGREVVGSAEAGVDAASVSEEFRADHPFLFCIKHIATNAVLFFGRCVSP",binding result,no binding

# — US20090142365A1 (HEALTH RESEARCH, published 2009)
